Measured values reported in patent US5352603A, “Highly alkaline proteases” (Kali-Chemie AG, priority 1989, dated 1994).

Columns and labels:
[1] = Washing test in Linitest with IEC test detergent with perborate (Example 19); settings: pH 10.5, 30 minutes at 45° C.
Description: (§1) The washing tests were carried out in a Linitest with EMPA 117 (11 cm×11 cm; polyester/cotton blended fabric, soiled with milk, blood and permanent ink) as the test fabric (purchased from the Eidgenoessische Material pruefungsanstalt, Sankt Gallen, Switzerland)- Washing was carried out with 6 g/l IEC test detergent with perborate, type 1 (Lever Sunlicht GmbH, Mannheim; composition: 6.4% by weight linear alkylsulfonates, 2.3% by weight ethoxylated fatty alcohols with 14% ethoxy groups, 2.8% by weight sodium soap, 35% by weight sodium tripolyphosphate, 6% by weight sodium silicate, 1.5% by weight magnesium silicate, 1% by weight carboxy/methylcellulose, 0.2% by weight ethylenediaminetetraacetic acid (EDTA), 0.2% by weight optical brightener (stilbene type), 16.8% by weight sodium sulfate, and 7.8% by weight water as a spray-dried powder without bleach activator plus 20% by weight sodium perborate tetrahydrate) in water having a hardness of 15° on the German hardness scale. The pH of the wash liquor was pH 10.5. The washing time was 30 minutes at 45° C., and in each case 20 U of protease (prepared as described in Example 18) were employed per 100 ml. After the washing process was complete, the pieces of fabric were rinsed three times with tap water, dried and subsequently ironed. The reflection of the pieces of test cloth was determined four times on each side.

[2] = Washing test in Linitest with European-formulation detergent (Example 20); settings: analogous to Example 19
Description: as §1, with “side. […]” for “side.”

B1: Initial protease: non-mutated highly alkaline protease from Bacillus alcalophilus HA1 (DSM 5466), amino-acid sequence of FIG. 1 (SEQ. ID. NO. 2) (protein)
chain: MKKPLGKIVASTALLISVAFSSSIASAAEEAKEKYLIGFNEQEAVSEFVEQVEANDEVAILSEEEEVEIELLHEFETIPVLSVELSPEDVDALELDPAISYIEEDAEVTTMAQSVPWGISRVQAPAAHNRGLTGSGVKVAVLDTGISTHPDLNIRGGASFVPGEPSTQDGNGHGTHVAGTIAALNNSIGVLGVAPSAELYAVKVLGASGSGSVSSIAQGLEWAGNNGMHVANLSLGSPSPSATLEQAVNSATSRGVLVVAASGNSGAGSISYPARYANAMAVGATDQNNNRASFSQYGAGLDIVAPGVNVQSTYPGSTYASLNGTSMATPHVAGAAALVKQKNPSWSNV
[1]; 6 g/l IEC test detergent with perborate, type 1, 20 U of protease per 100 ml, averages of 16 washing tests
  Reflection: 71.1%
[1]; relative to initial protease = 100%, IEC test detergent with perborate, 20 U protease per 100 ml
  Relative Reflection: 100%
[2]; detergent in a formulation suitable for Europe (anionic and non-ionic surfactant, sodium tripolyphosphate, sodium perborate)
  Reflection: 65.6%
[2]; relative to initial protease = 100%, detergent in a formulation suitable for Europe
  Relative Reflection: 100%
